From patent US20210130436A1

What was measured:
PD-L1 (human) = PD-L1 (human) (UniProt Q9NZQ7); assay: cell-based or functional assay
CD28 (human) = CD28 (human) (UniProt P10747); assay: cell-based or functional assay

PD-L1 (human), sequence (Q9NZQ7 19-290): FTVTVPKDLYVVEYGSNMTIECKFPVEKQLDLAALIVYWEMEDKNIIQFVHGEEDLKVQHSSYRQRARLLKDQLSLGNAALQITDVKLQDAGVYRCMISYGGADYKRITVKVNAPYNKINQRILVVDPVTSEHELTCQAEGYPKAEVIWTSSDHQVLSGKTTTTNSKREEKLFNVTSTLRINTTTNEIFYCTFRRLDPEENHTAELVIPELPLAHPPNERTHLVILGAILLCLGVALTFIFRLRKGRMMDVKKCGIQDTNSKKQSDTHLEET

Substance	RLU, Jurkat/IL2 reporter; K562/OKT3/PD-L1 aAPC, Combination of FcR and/or PD-L1 Dependent Cross-Linking; 0.6 nM (PD-L1 (human)) [RLU]	RLU, Jurkat/IL2 reporter; K562/OKT3/PD-L1 aAPC, Combination of FcR and/or PD-L1 Dependent Cross-Linking; 1.9 nM (PD-L1 (human)) [RLU]	RLU, Jurkat/IL2 reporter; K562/OKT3/PD-L1 aAPC, Combination of FcR and/or PD-L1 Dependent Cross-Linking; 5.6 nM (PD-L1 (human)) [RLU]	RLU, Jurkat/IL2 reporter; K562/OKT3/PD-L1 aAPC, Combination of FcR and/or PD-L1 Dependent Cross-Linking; 16.7 nM (PD-L1 (human)) [RLU]	RLU, Jurkat/IL2 reporter; K562/OKT3/PD-L1 aAPC, Combination of FcR and/or PD-L1 Dependent Cross-Linking; 50 nM (PD-L1 (human)) [RLU]	IL-2 release, primary T cells; K562/OKT3 (No PD-L1); 10 nM (CD28 (human))	RLU, Jurkat/IL2 reporter; K562/OKT3 aAPC, FcR Dependent Cross-Linking (No PD-L1); 0.6 nM (CD28 (human)) [RLU]	RLU, Jurkat/IL2 reporter; K562/OKT3 aAPC, FcR Dependent Cross-Linking (No PD-L1); 1.9 nM (CD28 (human)) [RLU]	RLU, Jurkat/IL2 reporter; K562/OKT3 aAPC, FcR Dependent Cross-Linking (No PD-L1); 5.6 nM (CD28 (human)) [RLU]	RLU, Jurkat/IL2 reporter; K562/OKT3 aAPC, FcR Dependent Cross-Linking (No PD-L1); 16.7 nM (CD28 (human)) [RLU]	RLU, Jurkat/IL2 reporter; K562/OKT3 aAPC, FcR Dependent Cross-Linking (No PD-L1); 50 nM (CD28 (human)) [RLU]	IL-2 release, primary T cells; K562/OKT3/PD-L1; 10 nM (PD-L1 (human))	IL-2 release, primary T cells; K562/OKT3/PD-L1; 100 nM (PD-L1 (human))	IL-2-luciferase RLU, Jurkat + CHO/OKT3/PD-L1 aAPC, 0.6 nM (CD28 (human)) [RLU]	IL-2-luciferase RLU, Jurkat + CHO/OKT3/PD-L1 aAPC, 1.9 nM (CD28 (human)) [RLU]	IL-2-luciferase RLU, Jurkat + CHO/OKT3/PD-L1 aAPC, 5.6 nM (CD28 (human)) [RLU]	IL-2-luciferase RLU, Jurkat + CHO/OKT3/PD-L1 aAPC, 16.7 nM (CD28 (human)) [RLU]	IL-2-luciferase RLU, Jurkat + CHO/OKT3 aAPC (no PD-L1), 5.6 nM (CD28 (human)) [RLU]	IL-2-luciferase RLU, Jurkat + CHO/OKT3 aAPC (no PD-L1), 16.7 nM (CD28 (human)) [RLU]	IL-2-luciferase RLU, Jurkat + CHO/OKT3 aAPC (no PD-L1), 50 nM (CD28 (human)) [RLU]	also measured
variant CD80 IgV-Fc (effector) E35D/D46V/L85Q (Fc fusion)	1420	2430	3310	3640	4130	21500	1880	2720	4400	6020	7020	–	–	–	–	–	–	–	–	–	IL-2 release, primary T cells; K562/OKT3 (No PD-L1); 1 nM (CD28 (human)): 14300; IL-2 release, primary T cells; K562/OKT3 (No PD-L1); 100 nM (CD28 (human)): 25400
variant CD80 IgV-Fc (effector) E35D/M47I (Fc fusion)	2830	3600	4700	5320	5700	21600	1780	2130	3650	5790	7140	–	–	–	–	–	–	–	–	–	IL-2 release, primary T cells; K562/OKT3 (No PD-L1); 1 nM (CD28 (human)): 11100; IL-2 release, primary T cells; K562/OKT3 (No PD-L1); 100 nM (CD28 (human)): 27200
variant CD80 IgV-Fc (effector) E35D/M47I/L70M (Fc fusion)	2240	2690	3650	3910	3870	26000	1610	2520	4230	5370	5780	–	–	–	–	–	–	–	–	–	IL-2 release, primary T cells; K562/OKT3 (No PD-L1); 1 nM (CD28 (human)): 15700; IL-2 release, primary T cells; K562/OKT3 (No PD-L1); 100 nM (CD28 (human)): 25300
variant CD80 IgV-Fc (effector) E35D/M47L (Fc fusion)	2780	3850	4730	5410	5040	23600	2120	3040	5620	7740	8680	–	–	–	–	–	–	–	–	–	IL-2 release, primary T cells; K562/OKT3 (No PD-L1); 1 nM (CD28 (human)): 14600; IL-2 release, primary T cells; K562/OKT3 (No PD-L1); 100 nM (CD28 (human)): 26800
variant CD80 IgV-Fc (inert) E23G/A26S/E35D/T62N/A71D/L72V/L85M (Fc fusion)	–	–	–	–	–	–	–	–	–	–	–	–	102	524	–	659	689	566	560	606	IL-2-luciferase RLU, Jurkat + CHO/OKT3/PD-L1 aAPC, 50 nM (CD28 (human)): 695 RLU
variant CD80 IgV-Fc (inert) E35D/D46V/L85Q (Fc fusion)	–	–	–	–	–	–	–	–	–	–	–	102	1430	611	1000	1490	–	511	554	720	–
variant CD80 IgV-Fc (inert) E35D/M47I (Fc fusion)	–	–	–	–	–	–	–	–	–	–	–	3430	8310	1050	1730	2790	3670	637	710	894	IL-2 release, primary T cells; K562/OKT3/PD-L1; 1 nM (PD-L1 (human)): 244; IL-2-luciferase RLU, Jurkat + CHO/OKT3/PD-L1 aAPC, 50 nM (CD28 (human)): 3780 RLU
variant CD80 IgV-Fc (inert) E35D/M47L (Fc fusion)	–	–	–	–	–	–	–	–	–	–	–	2700	7530	1040	1730	2580	3070	633	731	817	IL-2 release, primary T cells; K562/OKT3/PD-L1; 1 nM (PD-L1 (human)): 268

Second part, led by results:

RLU, Jurkat/IL2 reporter; K562/OKT3/PD-L1 aAPC, Combination of FcR and/or PD-L1 Dependent Cross-Linking; 0.6 nM (PD-L1 (human)) [RLU]	RLU, Jurkat/IL2 reporter; K562/OKT3/PD-L1 aAPC, Combination of FcR and/or PD-L1 Dependent Cross-Linking; 1.9 nM (PD-L1 (human)) [RLU]	RLU, Jurkat/IL2 reporter; K562/OKT3/PD-L1 aAPC, Combination of FcR and/or PD-L1 Dependent Cross-Linking; 5.6 nM (PD-L1 (human)) [RLU]	RLU, Jurkat/IL2 reporter; K562/OKT3/PD-L1 aAPC, Combination of FcR and/or PD-L1 Dependent Cross-Linking; 16.7 nM (PD-L1 (human)) [RLU]	RLU, Jurkat/IL2 reporter; K562/OKT3/PD-L1 aAPC, Combination of FcR and/or PD-L1 Dependent Cross-Linking; 50 nM (PD-L1 (human)) [RLU]	IL-2 release, primary T cells; K562/OKT3 (No PD-L1); 10 nM (CD28 (human))	RLU, Jurkat/IL2 reporter; K562/OKT3 aAPC, FcR Dependent Cross-Linking (No PD-L1); 0.6 nM (CD28 (human)) [RLU]	RLU, Jurkat/IL2 reporter; K562/OKT3 aAPC, FcR Dependent Cross-Linking (No PD-L1); 1.9 nM (CD28 (human)) [RLU]	RLU, Jurkat/IL2 reporter; K562/OKT3 aAPC, FcR Dependent Cross-Linking (No PD-L1); 5.6 nM (CD28 (human)) [RLU]	RLU, Jurkat/IL2 reporter; K562/OKT3 aAPC, FcR Dependent Cross-Linking (No PD-L1); 16.7 nM (CD28 (human)) [RLU]	RLU, Jurkat/IL2 reporter; K562/OKT3 aAPC, FcR Dependent Cross-Linking (No PD-L1); 50 nM (CD28 (human)) [RLU]	IL-2 release, primary T cells; K562/OKT3/PD-L1; 10 nM (PD-L1 (human))	IL-2 release, primary T cells; K562/OKT3/PD-L1; 100 nM (PD-L1 (human))	IL-2-luciferase RLU, Jurkat + CHO/OKT3/PD-L1 aAPC, 0.6 nM (CD28 (human)) [RLU]	IL-2-luciferase RLU, Jurkat + CHO/OKT3/PD-L1 aAPC, 1.9 nM (CD28 (human)) [RLU]	IL-2-luciferase RLU, Jurkat + CHO/OKT3/PD-L1 aAPC, 5.6 nM (CD28 (human)) [RLU]	IL-2-luciferase RLU, Jurkat + CHO/OKT3/PD-L1 aAPC, 16.7 nM (CD28 (human)) [RLU]	IL-2-luciferase RLU, Jurkat + CHO/OKT3 aAPC (no PD-L1), 5.6 nM (CD28 (human)) [RLU]	IL-2-luciferase RLU, Jurkat + CHO/OKT3 aAPC (no PD-L1), 16.7 nM (CD28 (human)) [RLU]	IL-2-luciferase RLU, Jurkat + CHO/OKT3 aAPC (no PD-L1), 50 nM (CD28 (human)) [RLU]	Substance	also measured
1020	1250	1620	2050	2780	7710	1350	1340	1400	1340	1570	–	–	–	–	–	–	–	–	–	variant CD80 IgV-Fc (effector) E35D/M43L/L70M (Fc fusion)	IL-2 release, primary T cells; K562/OKT3 (No PD-L1); 1 nM (CD28 (human)): 8020; IL-2 release, primary T cells; K562/OKT3 (No PD-L1); 100 nM (CD28 (human)): 10500
689	732	735	701	805	7900	1340	1370	1380	1430	1510	–	–	–	–	–	–	–	–	–	variant CD80 IgV-Fc (effector) E35G/K54E/A71D/L72P (Fc fusion)	IL-2 release, primary T cells; K562/OKT3 (No PD-L1); 1 nM (CD28 (human)): 7030
1160	1820	3120	4330	5220	20500	2080	2810	4550	6960	8750	–	–	–	–	–	–	–	–	–	variant CD80 IgV-Fc (effector) H18Y/A26T/E35D/A71D/L85Q (Fc fusion)	IL-2 release, primary T cells; K562/OKT3 (No PD-L1); 100 nM (CD28 (human)): 20600
–	–	–	–	–	–	–	–	–	–	–	268	1460	509	618	886	1380	458	415	432	variant CD80 IgV-Fc (inert) A26E/E35D/M47L/L85Q (Fc fusion)	IL-2 release, primary T cells; K562/OKT3/PD-L1; 1 nM (PD-L1 (human)): 72; IL-2-luciferase RLU, Jurkat + CHO/OKT3/PD-L1 aAPC, 50 nM (CD28 (human)): 2000 RLU
–	–	–	–	–	–	–	–	–	–	–	210	2740	456	465	625	995	412	480	448	variant CD80 IgV-Fc (inert) E35D (Fc fusion)	IL-2-luciferase RLU, Jurkat + CHO/OKT3/PD-L1 aAPC, 50 nM (CD28 (human)): 1610 RLU
–	–	–	–	–	–	–	–	–	–	–	52	–	479	525	683	1070	396	439	515	variant CD80 IgV-Fc (inert) E35D/M43L/L70M (Fc fusion)	–
–	–	–	–	–	–	–	–	–	–	–	6980	8390	1000	1640	2350	2630	549	544	600	variant CD80 IgV-Fc (inert) E35D/M47I/L70M (Fc fusion)	IL-2 release, primary T cells; K562/OKT3/PD-L1; 1 nM (PD-L1 (human)): 311; IL-2-luciferase RLU, Jurkat + CHO/OKT3/PD-L1 aAPC, 50 nM (CD28 (human)): 2630 RLU
